According to publication PMC2837848 (Biochemistry, 2010):
Substitutions are numbered along the chain they refer to. Numbers in names are those of the source.

B1: Salmonella typhimurium QAPRTase R118A (enzyme)
chain: MPPRRYNPDDRRDALLERINLDIPAAVAQALREDLGGEVDAGNDITAQLLPADTQAHATVITREDGVFCGKRWVEEVFIQLAGDDVRLTWHVDDGDAIHANQTVFELNGPARVLLTGEATALNFVQTLSGVASEVRRYVGLLAGTQTQLLDTRKTLPGLRTALKYAVLCGGGANHRLGLTDAFLIKENHIIASGSVRQAVEKAFWLHPDVPVEVEVENLDELDDALKAGADIIMLDNFNTDQMREAVKRVNGQARLEVSGNVTAETLREFAETGVDFISVGALTKHVRALDLSMRFC
B2: Salmonella typhimurium QAPRTase K185A (enzyme)
chain: B1 chain with A119R, K186A
B3: Salmonella typhimurium QAPRTase R175A (enzyme)
chain: B1 chain with A119R, R176A
B4: Salmonella typhimurium QAPRTase R152A (enzyme)
chain: B1 chain with A119R, R153A
B5: Salmonella typhimurium QAPRTase H188A (enzyme)
chain: B1 chain with A119R, H189A

Molecular target: the molecule itself
Experiment: SEC
For B1, the “stoichiometry N” value was 2. B2 was tested, and the “stoichiometry N” value was 2. With B3 the “stoichiometry N” value was 2. In the case of B4, the “stoichiometry N” value is reported as 2. B5 was tested, and the “stoichiometry N” value was 2.
